Experimental data reported in US20160024155A1 (published 2016).
Like-named read-outs stand apart in the source and are kept apart here.

Legend:
[1] = biological target: T1, A/South Carolina/1/1918 (H1N1) hemagglutinin ectodomain (Influenza A virus A/South …)
[2] = biological target: T1, A/South Carolina/1/1918 (H1N1) …; remark: listed apart in the source
[3] = biological target: T1, A/South Carolina/1/1918 (H1N1) …; remark: listed apart in the source
[4] = biological target: T1, A/South Carolina/1/1918 (H1N1) …; remark: listed apart in the source

B1: HB80.1 (Met26Thr, Asn36Lys) (designed binder)
chain: MASTRGSGRPWDFSENLAFELALAFTNKDTPDRWAKVAQYVSGRTPEEVKKHYEILVEDIKYIESGKVPFPNYRTTGGNMKTDEKRFRNLKIRLE
[1]
  Kd: 7.5 nM
[2]
  Kd: 7.5 nM

B2: HB36.1 (Asp47Ser) (designed binder)
chain: MSNAMDGQQLNRLLLEWIGAWDPFGLGKDAYDVEAEAVLQAVYETESAFDLAMRIMWIYAFAFNRPIPFPHAQKLARRLLELKQAASSPLPLE
[3]
  fold increase in binding affinity relative to HB36: ~40 fold
[1]
  Kd: 5 nM
[4]
  Kd: 2 to 5 nM
  fold increase in binding affinity relative to original design (HB36): > 10 fold
